According to US20170015742A1 (published 2017):

B1: 9A8.12-GS-9E8.4E (PR-1577165) (bispecific antibody, human IgG1, kappa, L234A L235A)
heavy: EVQLVQSGAEVKKPGASVKVSCKASGYTFTNYGMYWVRQAPGQGLEWMGWINTETGKPIYADDFKGRVTMTTDTSTSTAYMELRSLRSDDTAVYYCARVDYDGSFWFAYWGQGTLVTVSSGGGGSGGGGSEVTLRESGPALVKPTQTLTLTCTFSGFSLSTYGMGVGWIRQPPGKALEWLANIWWDDDKYYNPSLKNRLTISKDTSKNQVVLTMTNMDPVDTATYYCARIESIGTTYSFDYWGQGTMVTVSSASTKGPSVFPLAPSSKSTSGGTAALGCLVKDYFPEPVTVSWNSGALTSGVHTFPAVLQSSGLYSLSSVVTVPSSSLGTQTYICNVNHKPSNTKVDKKVEPKSCDKTHTCPPCPAPEAAGGPSVFLFPPKPKDTLMISRTPEVTCVVVDVSHEDPEVKFNWYVDGVEVHNAKTKPREEQYNSTYRVVSVLTVLHQDWLNGKEYKCKVSNKALPAPIEKTISKAKGQPREPQVYTLPPSREEMTKNQVSLTCLVKGFYPSDIAVEWESNGQPENNYKTTPPVLDSDGSFFLYSKLTVDKSRWQQGNVFSCSVMHEALHNAYTQKSLSLSPGK
light: DTQLTQSPSSLSASVGDRVTITCRASESVSTVIHWYQQKPGKQPKLLIHGASNLESGVPSRFSGSGSGTDFTLTISSLQPEDFATYFCQQHWNDPPTFGQGTKLEIKRGGSGGGGSGEFVLTQSPGTLSLSPGERATLSCERSSGDIGESYVSWYQQKPGQAPRLVIYADDQRPSGIPDRFSGSGSGTDFTLTISRLEPEDFAVYYCQSYDINIDIVFGGGTKVEIKRTVAAPSVFIFPPSDEQLKSGTASVVCLLNNFYPREAKVQWKVDNALQSGNSQESVTEQDSKDSTYSLSSTLTLSKADYEKHKVYACEVTHQGLSSPVTKSFNRGEC
notes: DVD-Ig: outer hBEW-9A8.12 (VEGF), inner hBDI-9E8.4E (PDGF), linkers GS-H10/GS-L10; Human IgG1 L234A, L235A, H435A with kappa
B2: 9A8.12-SL-9E8.4E (PR-1577166) (bispecific antibody, human IgG1, kappa, L234A L235A)
heavy: EVQLVQSGAEVKKPGASVKVSCKASGYTFTNYGMYWVRQAPGQGLEWMGWINTETGKPIYADDFKGRVTMTTDTSTSTAYMELRSLRSDDTAVYYCARVDYDGSFWFAYWGQGTLVTVSSASTKGPEVTLRESGPALVKPTQTLTLTCTFSGFSLSTYGMGVGWIRQPPGKALEWLANIWWDDDKYYNPSLKNRLTISKDTSKNQVVLTMTNMDPVDTATYYCARIESIGTTYSFDYWGQGTMVTVSSASTKGPSVFPLAPSSKSTSGGTAALGCLVKDYFPEPVTVSWNSGALTSGVHTFPAVLQSSGLYSLSSVVTVPSSSLGTQTYICNVNHKPSNTKVDKKVEPKSCDKTHTCPPCPAPEAAGGPSVFLFPPKPKDTLMISRTPEVTCVVVDVSHEDPEVKFNWYVDGVEVHNAKTKPREEQYNSTYRVVSVLTVLHQDWLNGKEYKCKVSNKALPAPIEKTISKAKGQPREPQVYTLPPSREEMTKNQVSLTCLVKGFYPSDIAVEWESNGQPENNYKTTPPVLDSDGSFFLYSKLTVDKSRWQQGNVFSCSVMHEALHNAYTQKSLSLSPGK
light: DTQLTQSPSSLSASVGDRVTITCRASESVSTVIHWYQQKPGKQPKLLIHGASNLESGVPSRFSGSGSGTDFTLTISSLQPEDFATYFCQQHWNDPPTFGQGTKLEIKRTVAAPSVFIFPPEFVLTQSPGTLSLSPGERATLSCERSSGDIGESYVSWYQQKPGQAPRLVIYADDQRPSGIPDRFSGSGSGTDFTLTISRLEPEDFAVYYCQSYDINIDIVFGGGTKVEIKRTVAAPSVFIFPPSDEQLKSGTASVVCLLNNFYPREAKVQWKVDNALQSGNSQESVTEQDSKDSTYSLSSTLTLSKADYEKHKVYACEVTHQGLSSPVTKSFNRGEC
notes: DVD-Ig: outer hBEW-9A8.12 (VEGF), inner hBDI-9E8.4E (PDGF), linkers HG-short/LK-long; Human IgG1 L234A, L235A, H435A with kappa
B3: 9A8.12-LS-9E8.4E (PR-1577547) (bispecific antibody, human IgG1, kappa, L234A L235A)
heavy: EVQLVQSGAEVKKPGASVKVSCKASGYTFTNYGMYWVRQAPGQGLEWMGWINTETGKPIYADDFKGRVTMTTDTSTSTAYMELRSLRSDDTAVYYCARVDYDGSFWFAYWGQGTLVTVSSASTKGPSVFPLAPEVTLRESGPALVKPTQTLTLTCTFSGFSLSTYGMGVGWIRQPPGKALEWLANIWWDDDKYYNPSLKNRLTISKDTSKNQVVLTMTNMDPVDTATYYCARIESIGTTYSFDYWGQGTMVTVSSASTKGPSVFPLAPSSKSTSGGTAALGCLVKDYFPEPVTVSWNSGALTSGVHTFPAVLQSSGLYSLSSVVTVPSSSLGTQTYICNVNHKPSNTKVDKKVEPKSCDKTHTCPPCPAPEAAGGPSVFLFPPKPKDTLMISRTPEVTCVVVDVSHEDPEVKFNWYVDGVEVHNAKTKPREEQYNSTYRVVSVLTVLHQDWLNGKEYKCKVSNKALPAPIEKTISKAKGQPREPQVYTLPPSREEMTKNQVSLTCLVKGFYPSDIAVEWESNGQPENNYKTTPPVLDSDGSFFLYSKLTVDKSRWQQGNVFSCSVMHEALHNAYTQKSLSLSPGK
light: DTQLTQSPSSLSASVGDRVTITCRASESVSTVIHWYQQKPGKQPKLLIHGASNLESGVPSRFSGSGSGTDFTLTISSLQPEDFATYFCQQHWNDPPTFGQGTKLEIKRTVAAPEFVLTQSPGTLSLSPGERATLSCERSSGDIGESYVSWYQQKPGQAPRLVIYADDQRPSGIPDRFSGSGSGTDFTLTISRLEPEDFAVYYCQSYDINIDIVFGGGTKVEIKRTVAAPSVFIFPPSDEQLKSGTASVVCLLNNFYPREAKVQWKVDNALQSGNSQESVTEQDSKDSTYSLSSTLTLSKADYEKHKVYACEVTHQGLSSPVTKSFNRGEC
notes: DVD-Ig: outer hBEW-9A8.12 (VEGF), inner hBDI-9E8.4E (PDGF), linkers HG-long/LK-short; Human IgG1 L234A, L235A, H435A with kappa
B4: 9E8.4E-SL-9A8.12 (PR-1577548) (bispecific antibody, human IgG1, kappa, L234A L235A)
heavy: EVTLRESGPALVKPTQTLTLTCTFSGFSLSTYGMGVGWIRQPPGKALEWLANIWWDDDKYYNPSLKNRLTISKDTSKNQVVLTMTNMDPVDTATYYCARIESIGTTYSFDYWGQGTMVTVSSASTKGPEVQLVQSGAEVKKPGASVKVSCKASGYTFTNYGMYWVRQAPGQGLEWMGWINTETGKPIYADDFKGRVTMTTDTSTSTAYMELRSLRSDDTAVYYCARVDYDGSFWFAYWGQGTLVTVSSASTKGPSVFPLAPSSKSTSGGTAALGCLVKDYFPEPVTVSWNSGALTSGVHTFPAVLQSSGLYSLSSVVTVPSSSLGTQTYICNVNHKPSNTKVDKKVEPKSCDKTHTCPPCPAPEAAGGPSVFLFPPKPKDTLMISRTPEVTCVVVDVSHEDPEVKFNWYVDGVEVHNAKTKPREEQYNSTYRVVSVLTVLHQDWLNGKEYKCKVSNKALPAPIEKTISKAKGQPREPQVYTLPPSREEMTKNQVSLTCLVKGFYPSDIAVEWESNGQPENNYKTTPPVLDSDGSFFLYSKLTVDKSRWQQGNVFSCSVMHEALHNAYTQKSLSLSPGK
light: EFVLTQSPGTLSLSPGERATLSCERSSGDIGESYVSWYQQKPGQAPRLVIYADDQRPSGIPDRFSGSGSGTDFTLTISRLEPEDFAVYYCQSYDINIDIVFGGGTKVEIKRTVAAPSVFIFPPDTQLTQSPSSLSASVGDRVTITCRASESVSTVIHWYQQKPGKQPKLLIHGASNLESGVPSRFSGSGSGTDFTLTISSLQPEDFATYFCQQHWNDPPTFGQGTKLEIKRTVAAPSVFIFPPSDEQLKSGTASVVCLLNNFYPREAKVQWKVDNALQSGNSQESVTEQDSKDSTYSLSSTLTLSKADYEKHKVYACEVTHQGLSSPVTKSFNRGEC
notes: DVD-Ig: outer hBDI-9E8.4E (PDGF), inner hBEW-9A8.12 (VEGF), linkers HG-short/LK-long; Human IgG1 L234A, L235A, H435A with kappa
B5: 9E8.4E-LS-9A8.12 (PR-1577550) (bispecific antibody, human IgG1, kappa, L234A L235A)
heavy: EVTLRESGPALVKPTQTLTLTCTFSGFSLSTYGMGVGWIRQPPGKALEWLANIWWDDDKYYNPSLKNRLTISKDTSKNQVVLTMTNMDPVDTATYYCARIESIGTTYSFDYWGQGTMVTVSSASTKGPSVFPLAPEVQLVQSGAEVKKPGASVKVSCKASGYTFTNYGMYWVRQAPGQGLEWMGWINTETGKPIYADDFKGRVTMTTDTSTSTAYMELRSLRSDDTAVYYCARVDYDGSFWFAYWGQGTLVTVSSASTKGPSVFPLAPSSKSTSGGTAALGCLVKDYFPEPVTVSWNSGALTSGVHTFPAVLQSSGLYSLSSVVTVPSSSLGTQTYICNVNHKPSNTKVDKKVEPKSCDKTHTCPPCPAPEAAGGPSVFLFPPKPKDTLMISRTPEVTCVVVDVSHEDPEVKFNWYVDGVEVHNAKTKPREEQYNSTYRVVSVLTVLHQDWLNGKEYKCKVSNKALPAPIEKTISKAKGQPREPQVYTLPPSREEMTKNQVSLTCLVKGFYPSDIAVEWESNGQPENNYKTTPPVLDSDGSFFLYSKLTVDKSRWQQGNVFSCSVMHEALHNAYTQKSLSLSPGK
light: EFVLTQSPGTLSLSPGERATLSCERSSGDIGESYVSWYQQKPGQAPRLVIYADDQRPSGIPDRFSGSGSGTDFTLTISRLEPEDFAVYYCQSYDINIDIVFGGGTKVEIKRTVAAPDTQLTQSPSSLSASVGDRVTITCRASESVSTVIHWYQQKPGKQPKLLIHGASNLESGVPSRFSGSGSGTDFTLTISSLQPEDFATYFCQQHWNDPPTFGQGTKLEIKRTVAAPSVFIFPPSDEQLKSGTASVVCLLNNFYPREAKVQWKVDNALQSGNSQESVTEQDSKDSTYSLSSTLTLSKADYEKHKVYACEVTHQGLSSPVTKSFNRGEC
notes: DVD-Ig: outer hBDI-9E8.4E (PDGF), inner hBEW-9A8.12 (VEGF), linkers HG-long/LK-short; Human IgG1 L234A, L235A, H435A with kappa

biological target: T1, PDGF-BB (human, UniProt P01127 82-190, limits assumed); assay: Biacore SPR; DVD-Ig captured on anti-human Fc, antigen injected
T1 construct: also called human PDGF-BB; hPDGF-BB
T1 sequence (P01127 82-190 limits assumed): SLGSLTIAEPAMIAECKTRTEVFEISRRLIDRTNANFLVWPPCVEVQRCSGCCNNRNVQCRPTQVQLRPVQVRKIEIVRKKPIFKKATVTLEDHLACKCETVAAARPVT
Procedure: (§1) For example, approximately 9000 RU of goat anti-human Fc specific polyclonal antibody (Thermo Fisher Scientific Inc., Rockford, Ill.) diluted in 10 mM sodium acetate (pH 4.5) is directly immobilized across a CM5 research grade biosensor chip using a standard amine coupling kit according to manufacturer's instructions and procedures at 25 μg/ml. Unreacted moieties on the biosensor surface were blocked with ethanolamine. For kinetic analysis, rate equations derived from the 1:1 Langmuir binding model were fitted simultaneously to multiple antigen injections (using global fit analysis) with the use of Scrubber 2 (BioLogic Software), Biacore Biaevaluation 4.0.1 software or Biacore T100 Evaluation software. Purified antibodies or DVD-Ig molecules were diluted in running buffer for capture across goat anti-human Fc reaction surfaces. Antibodies or DVD-Ig molecules to be captured as a ligand (1 μg/ml) were injected over reaction matrices at a flow rate of 10 μl/minute. During the assay, all measurements were referenced against the capture surface alone (i.e., with no captured antibody or DVD-Ig molecule). […] The equilibrium dissociation constant KD (M) of the reaction between antibodies and the target antigen was then calculated from the kinetic rate constants by the following formula: KD=Koff/Kₒₙ. Binding was recorded as a function of time and kinetic rate constants were calculated.

Binder | Kd | kon
B1 | 8.1 pM | 3.3e+07 M⁻¹ s⁻¹
B2 | 8.3 pM | 2.7e+07 M⁻¹ s⁻¹
B3 | 6.5 pM | 3.6e+07 M⁻¹ s⁻¹
B4 | 6.4 pM | 5e+07 M⁻¹ s⁻¹
B5 | 5 pM | 5e+07 M⁻¹ s⁻¹

biological target: T2, VEGF-A (human, UniProt P15692 207-395); assay: as above
T2 construct: also called hVEGF165
T2 sequence (P15692 other isoform, or with tags, fused parts or gaps limits assumed): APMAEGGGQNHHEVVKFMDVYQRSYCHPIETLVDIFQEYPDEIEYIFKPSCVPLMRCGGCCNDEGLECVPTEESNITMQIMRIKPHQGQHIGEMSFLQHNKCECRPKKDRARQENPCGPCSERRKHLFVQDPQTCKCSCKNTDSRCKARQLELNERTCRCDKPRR
Procedure: as §1

Binder | Kd | kon
B1 | 0.18 nM | 770000 M⁻¹ s⁻¹
B2 | 0.47 nM | 250000 M⁻¹ s⁻¹
B3 | 0.35 nM | 270000 M⁻¹ s⁻¹
B4 | 0.16 nM | 2.2e+06 M⁻¹ s⁻¹
B5 | 0.23 nM | 640000 M⁻¹ s⁻¹
